Assay results published in PMC7861197 (Molecular pharmaceutics, 2020).

Legend:
[1] = FTC concentrations in rat tissues by LC-MS/MS; assay type: in vivo, Sprague Dawley rats; details: for concentration at 4 h: male, Sprague Dawley, rat, iv
[2] = Plasma pharmacokinetics of PLS-FTC vs FTC in rats
[3] = In vitro drug release in human plasma with or without esterase inhibitor PMSF; details: PMSF-treated vs untreated human plasma
[4] = target: T1, scavenger receptor A (SR-A) (Mus musculus, UniProt P30204); assay: Scavenger receptor A competitive inhibition studies in RAW 264.7 cells; assay type: cell-based, murine; details: RAW 264.7, 3 h co-treatment, 200 μg/mL poly I or poly C, PLS-488 4.22 ng/mL to […] (Figure 2A)
T1 sequence (P30204 1-458): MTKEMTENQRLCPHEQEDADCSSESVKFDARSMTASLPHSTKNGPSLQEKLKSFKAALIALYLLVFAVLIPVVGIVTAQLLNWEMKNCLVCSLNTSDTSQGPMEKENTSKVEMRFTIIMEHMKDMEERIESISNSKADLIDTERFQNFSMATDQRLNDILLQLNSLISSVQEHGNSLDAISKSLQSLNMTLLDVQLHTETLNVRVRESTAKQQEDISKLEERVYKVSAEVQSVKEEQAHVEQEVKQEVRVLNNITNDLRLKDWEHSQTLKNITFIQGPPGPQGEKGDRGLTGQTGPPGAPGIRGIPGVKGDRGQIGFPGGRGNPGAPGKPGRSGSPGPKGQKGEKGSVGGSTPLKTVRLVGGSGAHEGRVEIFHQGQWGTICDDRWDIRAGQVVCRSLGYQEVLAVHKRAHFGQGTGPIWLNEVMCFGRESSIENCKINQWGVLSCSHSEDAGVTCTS

human PBMCs = details: 24 h incubation at 10 ug/mL FTC, normalized to soluble protein
[5] = rat axillary lymph nodes, 4 h post dose
[6] = tested on: SR-A1 knockout Raw 264.7 cells (clone 1/2); assay: Confocal microscopy of PLS-488 uptake, SR-A1 deficient RAW cells; assay type: cell-based, murine; details: SR-A1 deficient RAW cell line
[7] = Lymph node distribution of PLS-488 in mice, anti-Alexa488 immunohistochemistry; assay type: in vivo, C57BL/6 mice; details: 6 h and 24 h
[8] = tested on: wild-type RAW 264.7 cells; assay: Flow cytometry of PLS-488 uptake, wild-type RAW 264.7 cells; assay type: cell-based, murine; details: wild-type RAW 264.7, 24 h incubation
[9] = tested on: wild type Raw 264.7 cells; assay: Confocal microscopy of PLS-488 uptake, wild type RAW 264.7 cells; assay type: cell-based, murine
[10] = tested on: SR-A1 deficient RAW 264.7 derivative cell line (Clone 1/2); assay: Flow cytometry of PLS-488 uptake, SR-A1 deficient Clone 1/2; assay type: cell-based, murine; details: SR-A1 deficient Clone 1/2, 24 h incubation
[11] = rats, 4 h post i.v. injection, 10 mg FTC equivalents/kg, mean ± SD, n=3
[12] = FTC in plasma, rats, i.v. bolus 10 mg FTC equivalents/kg, mean ± SD (n=8)
[13] = rats, i.v. bolus 10 mg FTC equivalents/kg
[14] = male, Sprague Dawley, rat, plasma, iv, 10 mg/kg

Question: For “poly(L-lysine succinylated) FTC prodrug [PLS-FTC]”, which “FTC concentration in axillary lymph node” value [1, 11] is on record?
Answer: Its value is 811 ± 65 ng/g.

Question: What about the “FTC concentration in inguinal lymph node” value [1, 11] of the same compound?
Answer: The value was 587 ± 56 ng/g.

Question: And the “FTC concentration in liver” value [1, 11]?
Answer: The value was 2,257 ± 143 ng/g.

Question: And the “FTC concentration in mesenteric lymph node” value [1, 11]?
Answer: Its value is 850 ± 540 ng/g.

Question: And the “FTC concentration in popliteal lymph node” value [1, 11]?
Answer: Its value is 864 ± 330 ng/g.

Question: And the “FTC concentration in spleen” value [1, 11]?
Answer: The value was 1,788 ± 164 ng/g.

Question: What about the “fold higher concentrations in lymphatic tissues compared to free FTC control” value ([1]; rats, 4 h post injection, lymph nodes, liver, spleen) of the same compound?
Answer: Its value is 7 to 19 fold.

Question: And the “FTC concentration in LN inguinal at 24 h” value ([1]; rats, 24 h after i.v. bolus)?
Answer: The value was “below limit of quantitation”.

Question: And the AUCall [2, 12]?
Answer: The AUCall was 11100 ± 3281 ^* h*ng/mL.

Question: What about the C0 [2, 12] of the same compound?
Answer: The C0 was 4901 ± 3621 ng/mL.

Question: And the Cl [2, 12]?
Answer: Its Cl is 17.55 ± 10.3 mL/min/kg.

Question: What about the Cmax [2, 12] of the same compound?
Answer: The Cmax was 3839 ± 1734 ng/mL.

Question: What about the MRT [2, 12] of the same compound?
Answer: Its MRT is 3.64 ± 0.47 h.

Question: What about the T1/2 [2, 12] of the same compound?
Answer: Its T1/2 is 6.99 ± 2.62 h.

Question: What about the Vss [2, 12] of the same compound?
Answer: Its Vss is 3.816 ± 2.254 L/kg.

Question: What about the “fold higher area under the concentration-time curve vs FTC control” value [2, 13] of the same compound?
Answer: Its value is 2 fold.

Question: What about the “fold higher mean residence time vs FTC control” value [2, 13] of the same compound?
Answer: Its value is 2 fold.

Question: And the “fold lower concentration time zero vs FTC control” value [2, 13]?
Answer: The value was 2 fold.

Question: What about the “fold lower half-life vs FTC control” value [2, 13] of the same compound?
Answer: Its value is 2 fold.

Question: And the “prolongation of release half-life in PMSF-treated plasma” value [3]?
Answer: The value was ~ 2 fold.

Question: For “poly(cytidylic acid) potassium salt [poly C]”, which “inhibition of PLS-488 binding to macrophages” value [4] is on record?
Answer: The value was “not with the control polymer poly C”.

Question: Which concentration at 4 h ([1]; axillary lymph node, 10 mg FTC equivalents/kg) does the source give for `Nc1nc(=O)n([C@@H]2CS[C@H](CO)O2)cc1F` [FTC, Emtricitabine, reference compound] here?
Answer: The concentration at 4 h was 109 ± 37 ng/g.

Question: What about the concentration at 4 h ([1]; inguinal lymph node, 10 mg FTC equivalents/kg) of the same compound?
Answer: Its concentration at 4 h is 87 ± 51 ng/g.

Question: What about the concentration at 4 h ([1]; liver, 10 mg FTC equivalents/kg) of the same compound?
Answer: The concentration at 4 h was 119 ± 51 ng/g.

Question: What about the concentration at 4 h ([1]; popliteal lymph node, 10 mg FTC equivalents/kg) of the same compound?
Answer: Its concentration at 4 h is 105 ± 64 ng/g.

Question: And the concentration at 4 h ([1]; spleen, 10 mg FTC equivalents/kg)?
Answer: Its concentration at 4 h is 106 ± 44 ng/g.

Question: And the AUC [2, 14]?
Answer: Its AUC is 6400 ± 1010 ng·h/mL.

Question: What about the C0 [2, 14] of the same compound?
Answer: Its C0 is 10600 ± 2950 ng/mL.

Question: And the Cmax [2, 14]?
Answer: Its Cmax is 5850 ± 853 ng/mL.

Question: And the MRT [2, 14]?
Answer: The MRT was 1.8 ± 0.32 h.

Question: What about the Vd [2, 14] of the same compound?
Answer: Its Vd is 2.94 ± 1.09 L/kg.

Question: What about the clearance [2, 14] of the same compound?
Answer: The clearance was 26.7 mL/min/kg.

Question: What about the half-life [2, 14] of the same compound?
Answer: Its half-life is 14.1 ± 5.17 h.

Question: What about the “FTC concentration in PBMCs” value (human PBMCs) of the same compound?
Answer: Its value is 182 ± 18 ng/mg protein.

Question: What about the “FTC signal abundance (IR-MALDESI MSI)” value [5] of the same compound?
Answer: The value was 18.5 ± 16.6 arbitrary units.

Question: And the frequency of detection [5]?
Answer: The frequency of detection was 2.9 ± 2.8 % of sampling locations with measurable drug.

Question: Which “PLS-488 uptake by confocal microscopy” value [6] does the source give for “AlexaFluor488-labelled poly(L-lysine succinylated) [PLS-488]” here?
Answer: The value was “greatly reduced PLS-488 uptake”.

Question: What about the “accumulation in lymph nodes (IHC)” value ([7]; intradermal injection into foot pads) of the same compound?
Answer: The value was “robust accumulation of PLS-488 in regions of the draining (popliteal) and peripheral (axillary and inguinal) lymph nodes”.

Question: And the “accumulation in lymph nodes (IHC)” value ([7]; intravenous tail vein injection)?
Answer: Its value is “early accumulation of PLS-488 into myeloid-rich regions of the deep mesenteric lymph nodes by 6 h, with later accumulation in peripheral lymph nodes”.

Question: What about the “uptake of PLS-488 by flow cytometry” value [8] of the same compound?
Answer: Its value is “uniform uptake”.

Question: And the “PLS-488 uptake by confocal microscopy” value ([9]; wild type Raw 264.7, 1 μg/mL, 0.5 h)?
Answer: Its value is “uptake was observed at the earliest 0.5 h time point”.

Question: And the “PLS-488 fluorescence signal after 24 h treatment” value ([9]; wild type vs SR-A1 deficient Raw cells, 1 μg/mL, 24 h)?
Answer: Its value is “markedly greater in the wild type Raw 264.7 cells than the SR-A1 deficient Raw cells”.

Question: What about the “uptake of PLS-488 by flow cytometry” value [10] of the same compound?
Answer: The value was “no uptake”.
